# In patent US20220089642A1:
# Molecular target: SARS-CoV1
substance,measurement,value
Fc-ACE2 full length construct (Fc fusion),Kd,1.84 nM
same,koff,0.000435 s⁻¹
same,kon,237000 M⁻¹ s⁻¹
